Assay results reported in the DeepSol protein solubility set.

Test: soluble on expression in E. coli; label from the status in PepcDB or PDB records

Sequence | soluble on expression in E. coli
MGSDKIHHHHHHMSMSVQQIDWDLALIQKYNYSGPRYTSYPTALEFSEDFGEQAFLQAVARYPERPLSLYVHIPFCHKLCYFCGCNKIVTRQQHKADQYLDALEQEIVHRAPLFAGRHVSQLHWGGGTPTYLNKAQISRLMKLLRENFQFNADAEISIEVDPREIELDVLDHLRAEGFNRLSMGVQDFNKEVQRLVNREQDEEFIFALLNHAREIGFTSTNIDLIYGLPKQTPESFAFTLKRVAELNPDRLSVFNYAHLPTIFAAQRKIKDADLPSPQQKLDILQETIAFLTQSGYQFIGMDHFARPDDELAVAQREGVLHRNFQGYTTQGDTDLLGMGVSAISMIGDCYAQNQKELKQYYQQVDEQGNALWRGIALTRDDCIRRDVIKSLICNFRLDYAPIEKQWDLHFADYFAEDLKLLAPLAKDGLVDVDEKGIQVTAKGRLLIRNICMCFDTYLRQKARMQQFSRVI | not soluble
MGSDKIHHHHHHMSNCFNPANILLPKDGIDMEKWSVIACDQYTSQADYWKTVEEFVGDAPSTLNVVFPEIYLGNKKNDKNCACENGSCADDHTTMYASMSDSERIACINSTMEKYLSDGIIQQVVTDGYVLVERTTESGVRLGIVGLVDLDDYDFDPKNPTLIRATEGTVISRIPPRVKIREHAAIELPHVMLLVDDPVDKADDASDEGKLTDIYNIGNIEHGIIEYVYSLKDSFRKLYDTDLMQGGGHIRGYAIEGEAAKQVTAAFAKKQEQSGGFLFAVGDGNHSLATAKTCWENIRKSQKFTDEQLKTHPARYALVEICNLHSKALEFKPIHRLLTKVNVEDMLAFFNEQLKEQGLECAEGNEIIFEYVESSDSIDENASGYEARVCTYAINIINRGDRLPVEILQGILDKYIKSHEDTEIDYIHGDDALHRLVKETNGCGIFLQSIDKSTLFPAINAGGVLPRKTFSIGEANEKRYYMECHNIQVK | not soluble
MGSDKIHHHHHHMSNELESNDVIKISVSHLALGMFVTAIDNAKGALSITNPGQIKTQDAINKLLKSGIKSVWVDVERSADNCGLKKTSAESFEPTKGNPLARKAKPSRDSKQAQVKVILNEAKNLVRKVLSETYEGKAVEVAPFEEIADRMIESVMDDADAMKCISALRTKDAYLLEHSVNVAFLLVTFGKHLGLDKTMLKEMAVGGILHDIGKIKVDNEVLHKPGKLTPEEFAHIKLHQVYAVEIMEQTQGLAQVSKDVCLMHHEKLDGRGYPKGLKGDEIPLHGRMSCIVDIFDALTATRCYKEAMSPAAAFKILISLTPFHLDQALVYEFIRCVGIYPVGSLVQLSDERIGIVWEAKDRDALHPVVKCFYSLKHKRYTEVTMVDLRKAEVNIERGVSPGTLDVDPTPFY | not soluble
MGSDKIHHHHHHMSNQPHKPYGTPEPTYSGNKRSLILAGGGMRVAYQAGAIRALIESGLCFNHADGTSGGTMNLAMLLSGLSPIEMCDRWQTLNVKDFVSFIPLEKYLKAWDLLSMGDADGIIDRVFPHLGIDISKINASEGMQGTFNVCNFTHKTNEVIPHDRLDLDLLVAGISLPIFMPPVQKGDYLYMDSVWIKDVNLMEAVRRGADELWVLWCIGNSSEYQTGIFNQYVHMMELSANGAFFEECDRINEINQRILQGETVYGHTQPIKLHLIKPAYPLPLDPDYYLGNIDGATLVDMGYADAKQYLQTMSPAGLPFQPDVTRMHNNLPGMTFRESMAGAFVLNETDPIQGAAKGKAHNSSLSLQLTINICDLKRFLGDTTFTASIAGNISFANFGEHIPFKRGVFNLFAHDHNPGYKYITYELAFEHGNQDYYLVGKKELHNDPGFDLWQDMTTIYTYLHQGTDNNSPIIGSGILTLDVGDVAKCVSGWRITNAKSLTEKTTLLAEFGSFFWGNIWETYQP | not soluble
MGSDKIHHHHHHMSNTQKVPVTILTGFLGSGKTTLLNRILSEEHGKKIAVIENEYGEVGIDQGLVINADEEVFEMSNGCICCTVRGDLIRVLGNLMKRRDKFDYVLVETTGLADPGPVAQTFFMDDEIREEFSLDGIVTLVDAAHIEQQLGRSDESSEQVAFADVLVLNKTDLVSDESLDNLESRLRDMNRMARVIRSKQADVSIDTVLNLSAFDLDQVLQRRPTFLEPEYPFEWTGVFSLEKGRYELTLEEGPDPTMSLVQLLDQGKDETALNTGAESCVRLYAEQEQLMNPGDLVPVGKHVNLQLQSEGTKSFFIDVDKARDIGLFTQHTAEEFNMKLTKVNTPSTDEIDNDQNISTISPIAERVWVAEHEHDDEVGSFAIEREGDVDPEKLNRWLSRLLSEKGVDIFRTKGFISYAGESKRIVFQGVHMLFTAQPDKEWGNEPRRNQLVFIGRNLDEAEMIKEFDKCLV | not soluble
MGSDKIHHHHHHMSNTVRAISPDITLFNKTLTFQEISQNTREAVIYIHGGAWNDPENTPNDFNQLANTIKSMDTESTVCQYSIEYRLSPEITNPRNLYDAVSNITRLVKEKGLTNINMVGHSVGATFIWQILAALKDPQEKMSEAQLQMLGLLQIVKRVFLLDGIYSLKELLVEYPEYDCFTRLAFPDGIQMYEEEPSRVMPYVKKALSRFSIDMHLVHSYSDELLTLRQTNCLISCLQDYQLSFKLYLDDLGLHNDVYKNGKVAKYIFDNIC | not soluble
MGSDKIHHHHHHMSQAFLASENEQIKDYYEENGYVVVKNAVSLEKITDFINKYENFKISKNYYFRSQDTNRAEKLAINEKGFIERSILNPLELVYQKDFCRSSSNIICADSVSQILRTLTGKQKHTIWQTMFFDKSTGTVAHQDHYYLDSDPPGNLIACWYALEDIQEDAGAFFVVPKSHKGSVIPRKTDVPLFSDHEEYAKNIQKLINEQSYPIQPMLLEKGSVLFWHPYLIHGAFQNTNPKYSRKSFTAHFLPEGYSRLGISRVKPTVISTNPNILSWKKNLLHHAEASIRHWRYWLQVNLRPKSQRPYLEMRSSEYLDIK | not soluble
MGSDKIHHHHHHMSQATAKVNREVQAFLQDLKGKTIDHVFFVACGGSSAIMYPSKYVFDRESKSINSDLYSANEFIQRNPVQLGEKSLVILCSHSGNTPETVKAAAFARGKGALTIAMTFKPESPLAQEAQYVAQYDWGDEALAINTNYGVLYQIVFGTLQVLENNTKFEQAIEGLDQLQAVYEKALKQEADNAKQFAKAHEKESIIYTMASGANYGVAYSYSICILMEMQWIHSHAIHAGEYFHGPFEIIDESVPFIILLGLDETRPLEERALTFSKKYGKKLTVLDAASYDFTAIDDSVKGYLAPLVLNRVLRSYADELAEERNHPLSHRRYMWKVEY | not soluble
MGSDKIHHHHHHMSQKIAYQRLEDILKKGSRIALYARYSTGKQDENAQIHSVRNFLSDYGCELLDDNIYIDPKTSAVKVPMDQRKDLQRLIKDSKENKFDCIVSYKNDRIARNTQEHNELRTEMQRLGMPVVLSSTREIYTVGEIVPLTIKDALTQIEPLLIAERTRDTFSSKIENGEWTGGQAPYGYIYDKETELFEITDKKVEVVQEIFRLFKLGYGLQQIANKLIADRRDIGQKWYKDKIKYIITNPFYAGHMTMNRYVKGKLQLKMETWTWSKKQESIPAIMSRDEWEYCFYLYVERRKSQTVRKSSTPFWLRDILHCNECQLPFKTKNQKTKSKRKNGEKVEYGKILYECRNCGLKLETEKIHDKFKEDVGRVLKKLLEKHRENLIQQTQLQIEKEHEEITNVQKELANKRIKLIENIDVLDKKISQLYKDITTGKGLKANHTEDVLGKEDEQDDWNSKLVEILLTGRSQKHNDLEEIKQQQQLLEDKQESLNIVMNALKNQYQDELLNFSFDPENEKSMRNFLLQFVKAVYVSRDMRLDYKIYENLISE | not soluble
MGSDKIHHHHHHMSQPLFPVVEVPDFISEDSQYDTQYKRSMKWNTELGDFVRDGAHRIKECDGKEAFAIWCFKIAQTERYRCLAYPDSIGTEMERAMDNDDEKTVESMVERTITDAIMVNPRAENVRDFQFTWEGDQMHVTFKVKGSNWDEEIEISL | not soluble
MGSDKIHHHHHHMSQSAITVDQVTVTYRNGHTALRDATFQVPGGSIAALVGVNGSGKSTLFKALMGFVHLAQGDITILQQSVNKALKKNLIAYVPQSEEVDWSFPVLVEDVVMMGRYGHMGWLRRPTAHDHACVDAALARVDMQEYRHRQIGELSGGQKKRVFLARAIAQDGQVILLDEPFTGVDVKTEARIIDLLRELRDEGRTMLVSTHNLGSVTEFCDYTVMIKGTVLASGPTETTFTAANLEQAFSGVLRHIALSGGEEHIITDDERPFISRRVASGGKSS | not soluble
MGSDKIHHHHHHMSRFVGTETEYGIATPSNTMLSPIVTSTHAVVAFSLGERCASQARWDFSEESPLRDLRGFDLRRYRTVPVVDPHALGVANSVLINGGRFYVDHAHPEYSSPETSSAFQAMLYDAAGDVVMNRAVELVAENSQRKHSVLEHHDPCPPLKIYKNNVDGKGASYGSHENYLYNRETPFEEISSGLTPFFITRQVIIGAGRVGIGQYGEKSGFQISQRADYIEQEISLETTLNRGIINTRDEPHADSEHFGRLHVIIGDANMSQTSNFLKIGMTTLVLDAIEAGVDFSDLAVANPVAEVSAISHDLTLTHKIVLRDGRTLTALELLDEYRKRVSPQSDDDLDVLKEWSEILVLLQKGPFYAADRLDWCAKWQLISSFIKRGVSIDDPKIQLIDLQYADIDPAKSLYHALVRKGRMRTLVSTEQINNAAWSPPKGSRAYLRGSLISRFPDSVVQASWDSITLQTSRDQATKIKMPVVQSLSAEAIATIDTASSVKEVATILSQWLPVTTISLT | not soluble
MGSDKIHHHHHHMSRFVVITAAQDFQRKVQSAVRGALHGTVQILPPSVMLGGPQELFGRLSGEPPEVLVLGPGLPGDEALKLATVFDLQYPEISLVLVEDMASEQVINAMRAGIRDIVSPSAEVSELRILLERACLASAGRRRGLVAAAGPERPAGRVIAVMSPKGGVGKTTVATNLAIGLGKIAPMGVVIVDLDVQFGDVATGLQLEPEHTLRDAVGGAAFQDSMVLKAFLTVHPSGIYALCAPNTPGEADHISGEAVSHLLNQMAAEFQYVVVDTTPGLGEHVLATLEQATDAVWVCGMDIPSIRGLHTSFEVLRELQLLPQGRHVVLNFADRRSGLTVQDVEATIGVPVDTVVPRSRAVPFSTNKGVPLLQDSSHDGAARAFAKLVERFDPKRATQPQKKVHRRMVIS | not soluble
MGSDKIHHHHHHMSRLERLVTIDSLIRSRTYPSVADFCARFELSERAIFADLAYLRERIGAPLAYSRRNGGYYYRDPTWVMPMLQVTEGELLAFLISTELSRRYLGTPFAAPLRRLLQRMEAYITEQIVVHPDALLAHLTFQPGALAAVDPELVQVLHECIRECYPVEITYFTASRQELTHRLIEPYHLFLARGDLHVIAFDHLRGELRQFALYRIRQWQVRRHERFVRNPQIDIAAYLRNGFVVEGGTQPLLIEIAFDREQAPYIRERQWHATQQLEDQPDGGVILRFQSGALGEIKRWVLGYGSHARVLSPPELVQMVADELRKAAALYT | not soluble
MGSDKIHHHHHHMSSKVKVIAFYLPQFHPIPENDEWWGKGFTEWTSVGRAKKYYRGHYQPRVPADLGYYDLRLPQVRQQQADLAKEAGISAFCYWHYWFGNGKQLLENPLQEVVKLGEPDFPFCLGWANHTWLNKSWNREKQTVIPKPLILQEYPGKKDVDCHFYTMLPMFRDQRYFRIHGKLLFLIYAPLDIPNFKYFKMRWNELASQNDLPGFYFIANSEDISNIKNPIIREFEAVSLCRLYSAWNIEGKKVNNIVIRITRNISRILGYSLNKISYKKAIEKIDTPYYEEDRVYPNIIPGWDNSPRRGPGAFIFHKATPALFKKHVKMILNRIKDKPDEDKVIFLKSWNEWAEGNYMEPDLKWGKGYIRALREALEEDAK | not soluble
MGSDKIHHHHHHMSTKSLPMDQILNELRSYDRSEHILNHGFDLGTAWWKIELRKAAWTPSGPLAEPTESVRIDRRRLFGMASEIHTGDIDPVDFTLSVVLWGSGSSRRNNRARIQSIVDVEGRVALRQALELASTDAEASFAAFRTNGRNAFAYLGPAFFTKLMYFAGAGSKSHDAYIVDHRVLQTLSRTPAGAGLRAIHNYGPNTYRRACSALEVIASAARVSGCPELADCTGDLVERWAFDVAGAS | not soluble
